Results from patent CN108997499A (BEIJING CHEST HOSPITAL CAPITAL MEDICAL UNIV; BEIJING …, dated 2018).

Target: T1, PD-L1-his蛋白 (人PD-L1胞外区, his标签) (human, UniProt Q9NZQ7 19-238)
T1 construct: extracellular domain; also called PD-L1蛋白; PD-L1-his蛋白标准品; not shown: his tag
Assay: sandwich ELISA, PD-L1 antibody as capture, biotinylated antibody X as detection, HRP-Streptavidin

T1 sequence (Q9NZQ7 19-238): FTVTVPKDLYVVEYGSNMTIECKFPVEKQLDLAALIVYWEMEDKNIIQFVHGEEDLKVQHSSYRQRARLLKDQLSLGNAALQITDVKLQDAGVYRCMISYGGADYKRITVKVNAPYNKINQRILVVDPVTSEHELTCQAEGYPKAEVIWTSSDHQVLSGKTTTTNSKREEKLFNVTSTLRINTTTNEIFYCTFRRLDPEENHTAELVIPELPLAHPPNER

B1: 抗体X (非封阻型抗PD-L1抗体) (antibody, V domains shown)
VH: QVQLQQSGTELMKPGASVKISCKATGYTFSNYWIEWVKQRPGHGLEWIGEILPGSGNTNYNENFKGKATFTADTSSNTAYMQLSRLTSEDSAVYYCARERASTSWGQGTLVTVSA
VL: DIQMTQTTSSLSASLGDRVTITCSASQGISNYLNWYQQNPDGTVKLLIYYTSHLHSGVSSRFSGSGSGTDYSLTISNLEPEDIATYYCQQYVKLPWTFGGGTKLEIK
notes: Used biotin-labelled as the detection antibody; also called PD-L1抗体X; 第二抗体
Question: Does B1 bind?
Answer: Result: binds
